According to patent US20260176343A1 (UCL BUSINESS, published 2026):

B1: AR_TCE-1 (bispecific antibody)
chain: QVQLVESGGGVVQPGRSLRLSCAASGFIFSEHNMAWVRQAPGKGLEWVATISDDGRNTYYRDSMRGRFTISRDNSKNTLYLQMNSLRAEDTAVYYCTSHRYNLFDSWGQGTMVTVSSGGGGSGGGGSGGGGSDIQMTQSPSSLSASVGDRVTITCKASQNIDRYLNWYQQKPGKAPKRLIYNTNKLQTGVPSRFSGSGSGTEFTLTISSLQPEDFATYYCLQYNSLPLTFGQGTKLEIKSGGGGSIEPDSESQGGGGSQVQLVQSGAEVKKPGSSVKVSCKASGYTFTRYTMHWVRQAPGQGLEWMGYINPSRGYTNYNQKFKDRVTITADKSTSTAYMELSSLRSEDTAVYYCARYYDDHYCLDYWGQGTMVTVSSVEGGSGGSGGSGGSGGVDDIQMTQSPSSLSASVGDRVTITCSASSSVSYMNWYQQKPGKAPKRLIYDTSKLASGVPSRFSGSGSGTEFTLTISSLQPEDFATYYCQQWSSNPFTFGQGTKVEIKHHHHHH
B2: AR_TCE-3 (bispecific antibody)
chain: QVQLVESGGGVVQPGRSLRLSCAASGFIFSEHNMAWVRQAPGKGLEWVATISDDGRNTYYRDSMRGRFTISRDNSKNTLYLQMNSLRAEDTAVYYCTSHRYNLFDSWGQGTMVTVSSGGGGSGGGGSGGGGSDIQMTQSPSSLSASVGDRVTITCKASQNIDRYLNWYQQKPGKAPKRLIYNTNKLQTGVPSRFSGSGSGTEFTLTISSLQPEDFATYYCLQYNSLPLTFGQGTKLEIKSGGGGSIEPDSLEEGGGGSQVQLVQSGAEVKKPGSSVKVSCKASGYTFTRYTMHWVRQAPGQGLEWMGYINPSRGYTNYNQKFKDRVTITADKSTSTAYMELSSLRSEDTAVYYCARYYDDHYCLDYWGQGTMVTVSSVEGGSGGSGGSGGSGGVDDIQMTQSPSSLSASVGDRVTITCSASSSVSYMNWYQQKPGKAPKRLIYDTSKLASGVPSRFSGSGSGTEFTLTISSLQPEDFATYYCQQWSSNPFTFGQGTKVEIKHHHHHH
B3: NVG-111 (bispecific antibody)
chain: QVQLVESGGGVVQPGRSLRLSCAASGFIFSEHNMAWVRQAPGKGLEWVATISDDGRNTYYRDSMRGRFTISRDNSKNTLYLQMNSLRAEDTAVYYCTSHRYNLFDSWGQGTMVTVSSGGGGSGGGGSGGGGSDIQMTQSPSSLSASVGDRVTITCKASQNIDRYLNWYQQKPGKAPKRLIYNTNKLQTGVPSRFSGSGSGTEFTLTISSLQPEDFATYYCLQYNSLPLTFGQGTKLEIKSGSGGGGSQVQLVQSGAEVKKPGSSVKVSCKASGYTFTRYTMHWVRQAPGQGLEWMGYINPSRGYTNYNQKFKDRVTITADKSTSTAYMELSSLRSEDTAVYYCARYYDDHYCLDYWGQGTMVTVSSVEGGSGGSGGSGGSGGVDDIQMTQSPSSLSASVGDRVTITCSASSSVSYMNWYQQKPGKAPKRLIYDTSKLASGVPSRFSGSGSGTEFTLTISSLQPEDFATYYCQQWSSNPFTFGQGTKVEIKHHHHHH

Molecular target: ROR1 on Jeko-1 cells (UniProt Q01973 30-937, limits assumed)
Test: cell-based or functional assay

Binder | maximum target cell death, long-term (120 h) killing assay, 1 µg/mL, 1:10 effector to target ratio
B1 | 58.7%
B2 | 55.7%
B3 | 60.5%
